Reference: US20250145694A1 (GUANGDONG FEIPENG BIOLOGICAL, published 2025)
Changes are numbered by the printed parent chain. One block for each binder: values may come before it.

Tests used:
[1] = molecular target: T1, CTNI quality control recombinant antigen (human, UniProt P19429 1-210, limits assumed); assay: indirect ELISA, cTnI coated 1 ug/ml, antibody 1.372 ng/ml
T1 construct: Recombinant antigen produced by the applicant; also called CTNI quality control recombinant protein (antigen produced by the company); cardiac troponin I
T1 sequence (P19429 whole entry): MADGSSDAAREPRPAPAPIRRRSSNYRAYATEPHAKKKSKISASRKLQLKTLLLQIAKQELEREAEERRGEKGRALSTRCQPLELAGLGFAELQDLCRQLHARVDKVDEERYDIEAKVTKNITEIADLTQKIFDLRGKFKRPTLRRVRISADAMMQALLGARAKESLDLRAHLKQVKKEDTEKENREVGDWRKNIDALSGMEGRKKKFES
Experimental: (§1) CTNI quality control recombinant antigen was diluted to 1 μg/ml with a coating solution and coated a microplate, 100 μL per well, overnight at 4° C.; on the next day, the microplate was washed with a washing solution twice and patted dry; a blocking solution (20% of BSA+80% of PBS) was added, 120 μL per well, 37° C., 1 h, patted dry; the diluted cTnI monoclonal antibodies were added, 100 μL/well, 37° C., 30 min; the microplate was washed with a washing solution 5 times, patted dry; goat anti-mouse IgG-HRP, 100 μL per well, 37° C., 30 min; the microplate was washed with a washing solution 5 times, patted dry; a color-developing solution A (50 μL/well) was added, a color-developing solution B (50 μL/well) was added, 10 min; a stop solution was added, 50 μL/well; OD values were read on microplate reader at 450 nm (reference, 630 nm).

[2] = molecular target: T1, CTNI quality control recombinant antigen; assay: indirect ELISA, cTnI coated 1 ug/ml, antibody 0.051 ng/ml
Experimental: as §1

[3] = molecular target: T1, CTNI quality control recombinant antigen; assay: indirect ELISA, cTnI coated 1 ug/ml, antibody 0.152 ng/ml
Experimental: as §1

[4] = molecular target: T1, CTNI quality control recombinant antigen; assay: indirect ELISA, cTnI coated 1 ug/ml, antibody 12.346 ng/ml
Experimental: as §1

[5] = molecular target: T1, CTNI quality control recombinant antigen; assay: indirect ELISA, cTnI coated 1 ug/ml, antibody 0.457 ng/ml
Experimental: as §1

[6] = molecular target: T1, CTNI quality control recombinant antigen; assay: BLI, antibody on AMC sensor, cTnI in solution
Experimental: With an AMC sensor, the purified antibody was diluted to 10 μg/ml with PBST, and CTNI quality control recombinant protein (antigen produced by the company) was gradient diluted with PBST to 769.2 nmol/ml, 384.6 nmol/ml, 192.3 nmol/ml, 96.2 nmol/ml, 48.1 nmol/ml, 24 nmol/ml, 12 nmol/ml, and 0 nmol/ml.

[7] = molecular target: T1, CTNI quality control recombinant antigen; assay: indirect ELISA, cTnI coated 1 ug/ml, antibody 4.115 ng/ml
Experimental: as §1

[8] = molecular target: T1, CTNI quality control recombinant antigen; assay: indirect ELISA, cTnI coated 1 ug/ml, antibody 0 ng/ml (blank)
Experimental: as §1

- OD450 (reference 630 nm) [1]: 0.194 OD
- OD450 (reference 630 nm) [2]: 0.04 OD
- OD450 (reference 630 nm) [3]: 0.053 OD
- OD450 (reference 630 nm) [4]: 1.18 OD
- OD450 (reference 630 nm) [5]: 0.086 OD
- Kd [6]: 21.6 nM
- koff [6]: 0.000169 s⁻¹
- kon [6]: 7830 M⁻¹ s⁻¹
- OD450 (reference 630 nm) [7]: 0.435 OD
- OD450 (reference 630 nm) [8]: 0.031 OD
B1: Anti-cTnI 8C4 recombinant antibody (WT) (antibody, mouse IgG1, kappa)
heavy: EVQMVESGGGLLKPGGSLKLSCAASGFTYSNYAMSWVRQTPEKRLEWVATISTGGSYSYYPDSVKGRFTISRDNAKNTLYLQMLSLRSEDTAMYYCARKDNYYGSTFMDYWGQGSSVTVSSAKTTPPSVYPLAPGSAAQTNSMVTLGCLVKGYFPEPVTVTWNSGSLSSGVHTFPAVLQSDLYTLSSSVTVPSSTWPSQTVTCNVAHPASSTKVDKKIVPRDCGCKPCICTVPEVSSVFIFPPKPKDVLTITLTPKVTCVVVDISKDDPEVQFSWFVDDVEVHTAQTKPREEQFNSTFRSVSELPIMHQDWLNGKEFKCRVNSAAFPAPIEKTISKTKGRPKAPQVYTIPPPKEQMAKDKVSLTCMITNFFPEDITVEWQWNGQPAENYKNTQPIMDTDGSYFVYSKLNVQKSNWEAGNTFTCSVLHEGLHNHHTEKSLSHSPG
light: DIQMTQTSSSLSASLGDRVTISCRASQDITQYLNWYQQKPDGTIKLLIYYSSRIHSGVSSRFSGSGSGTDYSLTISNLEQEDIATYFCQQGNTIPLTFDTGTKLELKRADAAPTVSIFPPSSEQLTSGGASVVCFLNNFYPKDINVKWKIDGSERQNGVLNSWTDQDSKDSTYSMSSTLTLTKDEYERHNSYTCEATHKTSTSPIVKSFNRNEC
notes: Mouse antibody expressed in CHO cells; also called CTNI 8C4 antibody

- OD450 (reference 630 nm) [1]: 0.785 OD
- OD450 (reference 630 nm) [2]: 0.088 OD
- OD450 (reference 630 nm) [3]: 0.129 OD
- OD450 (reference 630 nm) [4]: 2.02 OD
- OD450 (reference 630 nm) [5]: 0.307 OD
- Kd [6]: 7.04 nM
- koff [6]: 0.000583 s⁻¹
- kon [6]: 82800 M⁻¹ s⁻¹
- OD450 (reference 630 nm) [7]: 1.6 OD
- OD450 (reference 630 nm) [8]: 0.039 OD
B2: Mutation 1 (antibody)
heavy: B1 heavy with T53S, K99R
light: B1 light with Q31N, S51T

- OD450 (reference 630 nm) [1]: 0.214 OD
- OD450 (reference 630 nm) [2]: 0.054 OD
- OD450 (reference 630 nm) [3]: 0.072 OD
- OD450 (reference 630 nm) [4]: 1.32 OD
- OD450 (reference 630 nm) [5]: 0.098 OD
- OD450 (reference 630 nm) [7]: 0.569 OD
- OD450 (reference 630 nm) [8]: 0.03 OD
B3: Mutation 5 (antibody)
heavy: B1 heavy with K99R
light: B1 light
notes: light chain unchanged from WT; heavy chain assembled FR/CDR/constant
